B1: hEP: human apoE dual-domain peptide: helix 4 of N-terminal domain plus major lipid-binding region; expressed in bacteria (protein)
peptide: EELRVRLASHLRKLRKRLLRDADDLQKRLAVYEEQAQQIRLQAEAFQARLKSWFEPLVEDM

What was measured:
[1] = system: JFH1 HCVcc; test: HCVcc binding assay (real-time PCR of vRNA, Huh7.5.1 cells); assay type: cell-based, Hepatitis C virus; conditions: 2.7 μM, 2 hours at 4° C., relative to scrambled peptide
Experimental: (§1) FIGS. 5A-5D. hEP inhibits HCV entry at the attachment step. (A) HCVcc-luc was first mixed with either scrambled peptide or hEP-2 (20 μg/ml) for one hour at room temperature. In Group 1, mixed virus was directly added to Huh7.5.1 cells, whereas in Group 2, virus was purified through ultracentrifuge at 28,000×g for 4 hours in order to remove peptide, and then used to infect Huh7.5.1 cells. **p<0.005. (B) The kinetics of hEP- and bafilomycin A1-mediated inhibition were determined by time-of-addition assays, as described in the examples section. Fitted lines represent sigmoidal time-dependent curves (mean of n=3; error bars, s.d.). […] Heparin (200 μg/ml), anti-CD81 monoclonal antibody (5 μg/ml), hEP (20 μg/ml), or bafilomycin A1 (10 nM) were present in the media either continuously, during the 4° C. incubation only (attachment), or during the 37° C. incubation phase only (post-attachment). % Inhibition was calculated as 100-percent infection relative to control infections containing DMSO or an isotype antibody control containing 0.01% sodium azide (for anti-CD81 only) (mean of n=3; error bars, s.d.). (D) The effects of hEP (2.7 μM) or scrambled peptide on HCV binding were determined as described in the examples section. Results were calculated as relative RNA copies with numbers obtained from the scrambled peptide treated wells set to 100 (mean of n=3; error bars, s.d.). **p<0.005. […]

[2] = system: HCVcc-luc; test: Attachment versus post-attachment inhibition assay; assay type: cell-based, Hepatitis C virus; conditions: heparin 200 μg/ml, anti-CD81 5 μg/ml, hEP 20 μg/ml, bafilomycin A1 10 nM
Experimental: FIGS. 5A-5D. hEP inhibits HCV entry at the attachment step. (A) HCVcc-luc was first mixed with either scrambled peptide or hEP-2 (20 μg/ml) for one hour at room temperature. In Group 1, mixed virus was directly added to Huh7.5.1 cells, whereas in Group 2, virus was purified through ultracentrifuge at 28,000×g for 4 hours in order to remove peptide, and then used to infect Huh7.5.1 cells. **p<0.005. (B) The kinetics of hEP- and bafilomycin A1-mediated inhibition were determined by time-of-addition assays, as described in the examples section. Fitted lines represent sigmoidal time-dependent curves (mean of n=3; error bars, s.d.). (C) HCVcc-Luc was added to Huh7.5.1 cells at 4° C. and incubated for 1.5 hrs. Unbound virus was removed by 2 washes with cold media, fresh media was added, and the cells were shifted to 37° C. to allow synchronous infection to proceed. Heparin (200 μg/ml), anti-CD81 monoclonal antibody (5 μg/ml), hEP (20 μg/ml), or bafilomycin A1 (10 nM) were present in the media either continuously, during the 4° C. incubation only (attachment), or during the 37° C. incubation phase only (post-attachment). % Inhibition was calculated as 100-percent infection relative to control infections containing DMSO or an isotype antibody control containing 0.01% sodium azide (for anti-CD81 only) (mean of n=3; error bars, s.d.). (D) The effects of hEP (2.7 μM) or scrambled peptide on HCV binding were determined as described in the examples section. Results were calculated as relative RNA copies with numbers obtained from the scrambled peptide treated wells set to 100 (mean of n=3; error bars, s.d.). **p<0.005.
To investigate the mechanistic action of hEP, three sets of experiments were conducted. First, hEP-2 (SEQ ID NO: 9) or scrambled peptide-treated HCVcc were purified through ultracentrifugation to remove the peptide and then used to infect naïve Huh7.5.1 cells. […] Second, to determine the kinetics of inhibition, a time-of-addition experiment was conducted. HCV remained sensitive to bafilomycin A1, a fusion inhibitor that prevents endosome acidification, until 3 hours after the 37° C. temperature shift (FIG. 5B), which is consistent with previous reports (Koutsoudakis et al., J Virol 2006; 80:5308-5320). […] In order to determine whether hEP-2 (SEQ ID NO: 9) blocks infection at the initial attachment step or a downstream event in the HCV entry process, hEP-2 (SEQ ID NO: 9) was either added together with HCVcc to cells during the 4° C. attachment step only, and then removed prior to shifting the temperature to 37° C., or added only after the temperature shift. As a positive control, hEP-1 was present during the entire course of the experiment. […] Finally, the direct binding of virions to cell surface was measured using a real-time PCR based assay.

[3] = system: HCVcc-luc; test: Time-of-addition assay; assay type: cell-based, Hepatitis C virus; conditions: 20 μg/ml (2.7 μM)
Experimental: as §1

[4] = system: LDLR; test: Surface LDLR level on Huh7.5.1 cells by flow cytometry; assay type: cell-based; conditions: various time periods
Experimental: (§2) FIGS. 4A-4C. (A) Huh7.5.1 cells seeded in a 12-well plate were treated with hEP-2 (20 μg/ml) for indicated time periods. Cells were stained with a mouse IgG (istotype control) or the anti-LDLR antibody followed by flow cytometric analysis. An overlay of 7 histograms is presented and the Δ median fluorescence intensity (ΔMFI, LDLR stain minus isotype control stain) of each sample is indicated to the upper right of the figure. (B) Cells were stained with anti-CD81 antibody and analyzed similarly as in A. (C) Immunonblots of SR-BI, CLDN1, and OCLN in the presence of hEP-2 or scrambled peptide.

[5] = system: HCVpp; test: HCVpp infection of Huh7.5.1 cells; assay type: cell-based, Hepatitis C virus (H77, JFH1, J6 envelope)
[6] = system: OCLN; test: Immunoblot of OCLN; assay type: cell-based
Experimental: as §2

[7] = system: CD81; test: CD81 level on Huh7.5.1 cells by flow cytometry; assay type: cell-based
Experimental: as §2

[8] = system: DENY (Thailand 16681); test: Dengue virus infection of Huh7.5.1 cells (TCID50); assay type: cell-based

| Molecule | Amount of viral RNA (vRNA) bound to cells [1] | Inhibition when present after the temperature shift only (post-attachment) [2] | Inhibition when present during the 4° C. attachment step only [2] | Activity when added after the temperature shift (time of addition) [3] | Change of surface LDLR [4] | Effect on infectivity of HCVpp [5] | Effect on level of OCLN [6] | Effect on level of CD81 [7] | Effect on infectivity of DENY [8] |
| --- | --- | --- | --- | --- | --- | --- | --- | --- | --- |
| EELRVRLASHLRKLRKRLLRDADDLQKRLAVYEEQAQQIRLQAEAFQARLKSWFEPLVEDM [hEP-1] | decreased significantly | very little inhibition | strongly inhibited | – | – | – | – | – | – |
| B1 | – | – | – | disappeared almost completely | did not cause detectable change | did not affect the infectivity | did not affect | did not affect | did not affect the infectivity |

— patent US10125184B2, “Apolipoprotein E polypeptides and their use” (priority 2011, dated 2018)
